Laboratory results published in paper PMC9080080 (Cell Reports, 2022).

Molecular target: SARS-CoV S2P protein (SARS-CoV, strain  (reference …, UniProt P59594, stabilised))
Experiment: SPR

B1: XMA09 (antibody, V domains shown)
VH: QVQLVQSGAEVKKPGSSVKVSCKASGGTFSSFAISWVRQAPGQGLEWMGGIIPIYGTANYAQKFQGRVTITADESTSTAYMDLSSLRSEDTAVYYCARDGSSTYYPHNWFDPWGQGTLVTVSS
VL: QSVLTQPPSVSGAPGQRVTISCTGSSSNIGSGYDVHWYQQLPGTAPKLLIYGNSNRPSGVPDRFSGSKSGTSASLAITGLQAEDEADYYCQSYDSSLSGVFGTGTKVTVL
binding result: binds
